One substance from US20200190204A1 can be followed below.

For this experiment, the target named is hBAFF-R-GFP fusion protein on mouse fibroblast L cells (clone D2C) (human) (UniProt Q96RJ3). The experiment in a line: flow cytometry on BAFF-R-expressing D2C L cells, 0.5 µg recombinant BAFF/10^6 cells, anti-BAFF-PE; unstained cells 0.0217; in the signal plot the 0 ng trace peaks between 10^2 and 10^3, the unstained one at about 10^2. (In general: A flow cytometer gives signals particle by particle.)

With “recombinant BAFF ligand (from UniProt Q9Y275 134-285)”, the gate number, percent of cells above the BAFF-PE line (no % sign printed) amounted to 59.6%.
